The supplement of paper PMC5998384

How the values were obtained:
HeLa Kyoto [1] = assay: solubility in G1/S (NP-40 vs SDS abundance) (log2 ratio); higher = more soluble; details: cell cycle stage: G1/S
HeLa Kyoto [2] = assay: solubility change mitosis vs G1/S (difference of NP-40 vs SDS log2 ratios) (log2 ratio difference); higher = more soluble in mitosis
HeLa Kyoto [3] = assay: melting temperature (median over replicates), in situ; higher = more thermally stable
HeLa Kyoto [4] = assay: thermal stability score vs G1/S (z-score of summed log2 fold changes over temperatures); higher = more thermally stable than in G1/S
[5] = cell cycle stage: early G1 (4.5 h after nocodazole release)
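For melting temperature (median over replicates), in situ in this document: HeLa Kyoto cells synchronized by double thymidine or nocodazole block, proteins quantified by TMT10plex mass spectrometry, three independent biological replicates.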
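For solubility change mitosis vs G1/S (difference of NP-40 vs SDS log2 ratios) in this document: synchronized HeLa Kyoto cells (double thymidine block for G1/S, nocodazole release for mitosis), protein amounts in NP-40 versus SDS lysates quantified by mass spectrometry, three biological replicates.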
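For solubility in G1/S (NP-40 vs SDS abundance) in this document: HeLa Kyoto cells arrested at G1/S by double thymidine block, proteins quantified by TMT10plex mass spectrometry in mild NP-40 versus SDS extracts, three biological replicates.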
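For thermal stability score vs G1/S (z-score of summed log2 fold changes over temperatures) in this document: synchronized HeLa Kyoto cells, proteins quantified by TMT10plex mass spectrometry, three biological replicates, mitosis taken 0.5 h after nocodazole release, G1/S directly after double thymidine block.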

Sequence of MAP7D1 (chain, as listed by the source): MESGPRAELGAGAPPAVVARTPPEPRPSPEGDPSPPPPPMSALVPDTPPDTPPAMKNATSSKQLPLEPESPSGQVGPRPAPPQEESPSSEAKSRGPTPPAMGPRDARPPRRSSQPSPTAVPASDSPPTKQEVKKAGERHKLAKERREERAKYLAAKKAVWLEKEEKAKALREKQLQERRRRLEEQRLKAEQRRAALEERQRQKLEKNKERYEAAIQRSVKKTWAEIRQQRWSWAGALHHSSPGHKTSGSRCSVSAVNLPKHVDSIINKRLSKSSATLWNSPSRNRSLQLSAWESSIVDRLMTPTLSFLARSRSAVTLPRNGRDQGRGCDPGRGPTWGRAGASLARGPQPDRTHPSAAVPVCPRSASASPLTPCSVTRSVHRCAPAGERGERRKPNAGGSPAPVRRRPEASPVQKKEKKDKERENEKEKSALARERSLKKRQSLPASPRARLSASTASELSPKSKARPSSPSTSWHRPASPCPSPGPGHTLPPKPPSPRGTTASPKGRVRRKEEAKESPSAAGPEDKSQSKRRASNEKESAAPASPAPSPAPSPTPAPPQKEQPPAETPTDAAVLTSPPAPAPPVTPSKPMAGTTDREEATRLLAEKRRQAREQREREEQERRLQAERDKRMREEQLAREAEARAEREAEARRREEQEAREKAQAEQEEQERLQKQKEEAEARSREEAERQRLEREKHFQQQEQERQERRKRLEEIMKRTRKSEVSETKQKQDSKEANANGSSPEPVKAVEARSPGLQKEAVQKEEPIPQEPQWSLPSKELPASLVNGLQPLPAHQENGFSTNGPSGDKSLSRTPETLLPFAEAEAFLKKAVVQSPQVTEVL

Row | Substance | solubility in G1/S (log2) (HeLa Kyoto [1]) | solubility change mitosis (log2) (HeLa Kyoto [2]) | melting temperature (HeLa Kyoto [3]; cell cycle stage: G1/S) | thermal stability score (HeLa Kyoto [4]; [5]) | thermal stability score (HeLa Kyoto [4]; cell cycle stage: mitosis) | melting temperature (HeLa Kyoto [3]; cell cycle stage: mitosis)
1 | MAMGLFRVCLVVVTAIINHPLLFPRENATVPENEEEIIRKMQAHQEKLQLEQLRLEEEVARLAAEKEALEQVAEEGRQQNETRVAWDLWSTLCMILFLMIEVWRQDHQEGPSPECLGGEEDELPGLGGAPLQGLTLPNKATLGHFYERCIRGATADAARTREFLEGFVDDLLEALRSLCNRDTDMEVEDFIGVDSMYENWQVDRPLLCHLFVPFTPPEPYRFHPELWCSGRSVPLDRQGYGQIKVVRADGDTLSCICGKTKLGEDMLCLLHGRNSMAPPCGDMENLLCATDSLYLDTMQVMKWFQTALTRAWKGIAHKYEFDLAFGQLDSPGSLKIKFRSGKFMPFNLIPVIQCDDSDLYFVSHLPREPSEGTPASSTDWLLSFAVYERHFLRTTLKALPEGACHLSCLQIASFLLSKQSRLTGPSGLSSYHLKTALLHLLLLRQAADWKAGQLDARLHELLCFLEKSLLQKKLHHFFIGNRKVPEAMGLPEAVLRAEPLNLFRPFVLQRSLYRKTLDSFYEMLKNAPALISEYSLHVPSDQPTPKS [ITPRIP] | 0.169 | -0.1 | 52 °C | -0.0632 | -0.00908 | –
2 | MAMLRVQPEAQAKVDVFREDLCTKTENLLGSYFPKKISELDAFLKEPALNEANLSNLKAPLDIPVPDPVKEKEKEERKKQQEKEDKDEKKKGEDEDKGPPCGPVNCNEKIVVLLQRLKPEIKDVIEQLNLVTTWLQLQIPRIEDGNNFGVAVQEKVFELMTSLHTKLEGFHTQISKYFSERGDAVTKAAKQPHVGDYRQLVHELDEAEYRDIRLMVMEIRNAYAVLYDIILKNFEKLKKPRGETKGMIY [PSME1] | 0.819 | 0.0323 | 52.4 °C | -2.91 | -1.23 | 53.8 °C
3 | MAMQAAKRANIRLPPEVNRILYIRNLPYKITAEEMYDIFGKYGPIRQIRVGNTPETRGTAYVVYEDIFDAKNACDHLSGFNVCNRYLVVLYYNANRAFQKMDTKKKEEQLKLLKEKYGINTDPPK [SF3B6] | -0.381 | 0.618 | 51.1 °C | -2.41 | -2.34 | 51.2 °C
4 | MAMRQTPLTCSGHTRPVVDLAFSGITPYGYFLISACKDGKPMLRQGDTGDWIGTFLGHKGAVWGATLNKDATKAATAAADFTAKVWDAVSGDELMTLAHKHIVKTVDFTQDSNYLLTGGQDKLLRIYDLNKPEAEPKEISGHTSGIKKALWCSEDKQILSADDKTVRLWDHATMTEVKSLNFNMSVSSMEYIPEGEILVITYGRSIAFHSAVSLDPIKSFEAPATINSASLHPEKEFLVAGGEDFKLYKYDYNSGEELESYKGHFGPIHCVRFSPDGELYASGSEDGTLRLWQTVVGKTYGLWKCVLPEEDSGELAKPKIGFPETTEEELEEIASENSDCIFPSAPDVKA [STRAP] | 0.14 | -0.127 | 52.3 °C | -1.2 | -3.1 | 52.2 °C
5 | MAMVSEFLKQAWFIENEEQEYVQTVKSSKGGPGSAVSPYPTFNPSSDVAALHKAIMVKGVDEATIIDILTKRNNAQRQQIKAAYLQETGKPLDETLKKALTGHLEEVVLALLKTPAQFDADELRAAMKGLGTDEDTLIEILASRTNKEIRDINRVYREELKRDLAKDITSDTSGDFRNALLSLAKGDRSEDFGVNEDLADSDARALYEAGERRKGTDVNVFNTILTTRSYPQLRRVFQKYTKYSKHDMNKVLDLELKGDIEKCLTAIVKCATSKPAFFAEKLHQAMKGVGTRHKALIRIMVSRSEIDMNDIKAFYQKMYGISLCQAILDETKGDYEKILVALCGGN [ANXA1] | 0.618 | 0.0587 | 49.1 °C | 3.41 | 3.05 | 49.6 °C
6 | MAMVTGGWGGPGGDTNGVDKAGGYPRAAEDDSASPPGAASDAEPGDEERPGLQVDCVVCGDKSSGKHYGVFTCEGCKSFFKRSIRRNLSYTCRSNRDCQIDQHHRNQCQYCRLKKCFRVGMRKEAVQRGRIPHSLPGAVAASSGSPPGSALAAVASGGDLFPGQPVSELIAQLLRAEPYPAAAGRFGAGGGAAGAVLGIDNVCELAARLLFSTVEWARHAPFFPELPVADQVALLRLSWSELFVLNAAQAALPLHTAPLLAAAGLHAAPMAAERAVAFMDQVRAFQEQVDKLGRLQVDSAEYGCLKAIALFTPDACGLSDPAHVESLQEKAQVALTEYVRAQYPSQPQRFGRLLLRLPALRAVPASLISQLFFMRLVGKTPIETLIRDMLLSGSTFNWPYGSGQ [NR2F6] | 0.0616 | -0.047 | 53.1 °C | 0.278 | 0.498 | 50.3 °C
7 | MANMQGLVERLERAVSRLESLSAESHRPPGNCGEVNGVIAGVAPSVEAFDKLMDSMVAEFLKNSRILAGDVETHAEMVHSAFQAQRAFLLMASQYQQPHENDVAALLKPISEKIQEIQTFRERNRGSNMFNHLSAVSESIPALGWIAVSPKPGPYVKEMNDAATFYTNRVLKDYKHSDLRHVDWVKSYLNIWSELQAYIKEHHTTGLTWSKTGPVASTVSAFSVLSSGPGLPPPPPPLPPPGPPPLFENEGKKEESSPSRSALFAQLNQGEAITKGLRHVTDDQKTYKNPSLRAQGGQTQSPTKSHTPSPTSPKSYPSQKHAPVLELEGKKWRVEYQEDRNDLVISETELKQVAYIFKCEKSTIQIKGKVNSIIIDNCKKLGLVFDNVVGIVEVINSQDIQIQVMGRVPTISINKTEGCHIYLSEDALDCEIVSAKSSEMNILIPQDGDYREFPIPEQFKTAWDGSKLITEPAEIMA [CAP2] | 0.136 | -0.179 | 51.3 °C | -1.54 | -2.12 | 50.3 °C
8 | MANNSPALTGNSQPQHQAAAAAAQQQQQCGGGGATKPAVSGKQGNVLPLWGNEKTMNLNPMILTNILSSPYFKVQLYELKTYHEVVDEIYFKVTHVEPWEKGSRKTAGQTGMCGGVRGVGTGGIVSTAFCLLYKLFTLKLTRKQVMGLITHTDSPYIRALGFMYIRYTQPPTDLWDWFESFLDDEEDLDVKAGGGCVMTIGEMLRSFLTKLEWFSTLFPRIPVPVQKNIDQQIKTRPRKIKKDGKEGAEEIDRHVERRRSRSPRRSLSPRRSPRRSRSRSHHREGHGSSSFDRELEREKERQRLEREAKEREKERRRSRSIDRGLERRRSRSRERHRSRSRSRDRKGDRRDRDREREKENERGRRRDRDYDKERGNEREKERERSRERSKEQRSRGEVEEKKHKEDKDDRRHRDDKRDSKKEKKHSRSRSRERKHRSRSRSRNAGKRSRSRSKEKSSKHKNESKEKSNKRSRSGSQGRTDSVEKSKKREHSPSKEKSRKRSRSKERSHKRDHSDSKDQSDKHDRRRSQSIEQESQEKQHKNKDETV [PRPF38B] | -0.989 | 0.407 | 50 °C | 0.848 | 1.5 | 50.6 °C
9 | MANPKEKTAMCLVNELARFNRVQPQYKLLNERGPAHSKMFSVQLSLGEQTWESEGSSIKKAQQAVANKALTESTLPKPVQKPPKSNVNNNPGSITPTVELNGLAMKRGEPAIYRPLDPKPFPNYRANYNFRGMYNQRYHCPVPKIFYVQLTVGNNEFFGEGKTRQAARHNAAMKALQALQNEPIPERSPQNGESGKDVDDDKDANKSEISLVFEIALKRNMPVSFEVIKESGPPHMKSFVTRVSVGEFSAEGEGNSKKLSKKRAATTVLQELKKLPPLPVVEKPKLFFKKRPKTIVKAGPEYGQGMNPISRLAQIQQAKKEKEPDYVLLSERGMPRRREFVMQVKVGNEVATGTGPNKKIAKKNAAEAMLLQLGYKASTNLQDQLEKTGENKGWSGPKPGFPEPTNNTPKGILHLSPDVYQEMEASRHKVISGTTLGYLSPKDMNQPSSSFFSISPTSNSSATIARELLMNGTSSTAEAIGLKGSSPTPPCSPVQPSKQLEYLARIQGFQAALSALKQFSEQGLDPIDGAMNIEKGSLEKQAKHLREKADNNQAPPGSIAQDCKKSNSAV [STAU2] | -0.227 | 0.169 | 49.1 °C | 0.426 | 1.69 | 50.3 °C
10 | MANRGPAYGLSREVQQKIEKQYDADLEQILIQWITTQCRKDVGRPQPGRENFQNWLKDGTVLCELINALYPEGQAPVKKIQASTMAFKQMEQISQFLQAAERYGINTTDIFQTVDLWEGKNMACVQRTLMNLGGLAVARDDGLFSGDPNWFPKKSKENPRNFSDNQLQEGKNVIGLQMGTNRGASQAGMTGYGMPRQIL [TAGLN2] | 0.348 | 0.461 | 50.9 °C | -1.52 | -1.77 | 51.7 °C
11 | MANRTVKDAHSIHGTNPQYLVEKIIRTRIYESKYWKEECFGLTAELVVDKAMELRFVGGVYGGNIKPTPFLCLTLKMLQIQPEKDIIVEFIKNEDFKYVRMLGALYMRLTGTAIDCYKYLEPLYNDYRKIKSQNRNGEFELMHVDEFIDELLHSERVCDIILPRLQKRYVLEEAEQLEPRVSALEEDMDDVESSEEEEEEDEKLERVPSPDHRRRSYRDLDKPRRSPTLRYRRSRSRSPRRRSRSPKRRSPSPRRERHRSKSPRRHRSRSRDRRHRSRSKSPGHHRSHRHRSHSKSPERSKKSHKKSRRGNE [PRPF38A] | -1.32 | 0.372 | 49 °C | -0.0926 | 1.13 | 48.6 °C
12 | MANVPWAEVCEKFQAALALSRVELHKNPEKEPYKSKYSARALLEEVKALLGPAPEDEDERPEAEDGPGAGDHALGLPAEVVEPEGPVAQRAVRLAVIEFHLGVNHIDTEELSAGEEHLVKCLRLLRRYRLSHDCISLCIQAQNNLGILWSEREEIETAQAYLESSEALYNQYMKEVGSPPLDPTERFLPEEEKLTEQERSKRFEKVYTHNLYYLAQVYQHLEMFEKAAHYCHSTLKRQLEHNAYHPIEWAINAATLSQFYINKLCFMEARHCLSAANVIFGQTGKISATEDTPEAEGEVPELYHQRKGEIARCWIKYCLTLMQNAQLSMQDNIGELDLDKQSELRALRKKELDEEESIRKKAVQFGTGELCDAISAVEEKVSYLRPLDFEEARELFLLGQHYVFEAKEFFQIDGYVTDHIEVVQDHSALFKVLAFFETDMERRCKMHKRRIAMLEPLTVDLNPQYYLLVNRQIQFEIAHAYYDMMDLKVAIADRLRDPDSHIVKKINNLNKSALKYYQLFLDSLRDPNKVFPEHIGEDVLRPAMLAKFRVARLYGKIITADPKKELENLATSLEHYKFIVDYCEKHPEAAQEIEVELELSKEMVSLLPTKMERFRTKMALT [KIF1BP] | 0.141 | -0.161 | 49 °C | 0.769 | 2.03 | 49 °C
13 | MAP7D1 | 0.337 | 0.536 | 52.8 °C | -1.09 | -4.66 | 51.2 °C
14 | MAPARCFSARLRTVFQGVGHWALSTWAGLKPSRLLPQRASPRLLSVGRADLAKHQELPGKKLLSEKKLKRYFVDYRRVLVCGGNGGAGASCFHSEPRKEFGGPDGGDGGNGGHVILRVDQQVKSLSSVLSRYQGFSGEDGGSKNCFGRSGAVLYIRVPVGTLVKEGGRVVADLSCVGDEYIAALGGAGGKGNRFFLANNNRAPVTCTPGQPGQQRVLHLELKTVAHAGMVGFPNAGKSSLLRAISNARPAVASYPFTTLKPHVGIVHYEGHLQIAVADIPGIIRGAHQNRGLGSAFLRHIERCRFLLFVVDLSQPEPWTQVDDLKYELEMYEKGLSARPHAIVANKIDLPEAQANLSQLRDHLGQEVIVLSALTGENLEQLLLHLKVLYDAYAEAELGQGRQPLRW [MTG2] | 0.239 | 0.00581 | 49.6 °C | -0.446 | 0.103 | 49.1 °C
15 | MAPDPVAAETAAQGPTPRYFTWDEVAQRSGCEERWLVIDRKVYNISEFTRRHPGGSRVISHYAGQDATDPFVAFHINKGLVKKYMNSLLIGELSPEQPSFEPTKNKELTDEFRELRATVERMGLMKANHVFFLLYLLHILLLDGAAWLTLWVFGTSFLPFLLCAVLLSAVQAQAGWLQHDFGHLSVFSTSKWNHLLHHFVIGHLKGAPASWWNHMHFQHHAKPNCFRKDPDINMHPFFFALGKILSVELGKQKKKYMPYNHQHKYFFLIGPPALLPLYFQWYIFYFVIQRKKWVDLAWMITFYVRFFLTYVPLLGLKAFLGLFFIVRFLESNWFVWVTQMNHIPMHIDHDRNMDWVSTQLQATCNVHKSAFNDWFSGHLNFQIEHHLFPTMPRHNYHKVAPLVQSLCAKHGIEYQSKPLLSAFADIIHSLKESGQLWLDAYLHQ [FADS1] | -0.124 | -0.092 | 51.9 °C | -0.752 | -0.737 | 51.3 °C
